According to publication PMC12259117 (bioRxiv, 2025):

What was measured:
ParB CTD = target: T1, ParB CTD (Bacillus subtilis, UniProt P26497 217-282); test: NMR
T1 sequence: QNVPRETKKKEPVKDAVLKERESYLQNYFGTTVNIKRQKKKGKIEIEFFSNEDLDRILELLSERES

SEC-MALS = target: the molecule itself; test: SEC-MALS

B1: 10-bp hairpin DNA (structured_DNA)
DNA: GCGTACATCATTCCCTGATGTACGC
- binding result (ParB CTD): binds

B2: BsParB(A232G), full length (natural protein)
chain: MAKGLGKGINALFNQVDLSEETVEEIKIADLRPNPYQPRKHFDDEALAELKESVLQHGILQPLIVRKSLKGYDIVAGERRFRAAKLAGLDTVPAIVRELSEALMREIALLENLQREDLSPLEEAQAYDSLLKHLDLTQEQLAKRLGKSRPHIANHLRLLTLPENIQQLIAEGTLSMGHGRTLLGLKNKNKLEPLVQKVIAEQLNVRQLEQLIQQLNQNVPRETKKKEPVKDGVLKERESYLQNYFGTTVNIKRQKKKGKIEIEFFSNEDLDRILELLSERES
- stoichiometry N (SEC-MALS): 2

B3: BsParB(K259A), full length (natural protein)
chain: MAKGLGKGINALFNQVDLSEETVEEIKIADLRPNPYQPRKHFDDEALAELKESVLQHGILQPLIVRKSLKGYDIVAGERRFRAAKLAGLDTVPAIVRELSEALMREIALLENLQREDLSPLEEAQAYDSLLKHLDLTQEQLAKRLGKSRPHIANHLRLLTLPENIQQLIAEGTLSMGHGRTLLGLKNKNKLEPLVQKVIAEQLNVRQLEQLIQQLNQNVPRETKKKEPVKDAVLKERESYLQNYFGTTVNIKRQKKKGAIEIEFFSNEDLDRILELLSERES
- stoichiometry N (SEC-MALS): 2

B4: BsParB(K257A), full length (natural protein)
chain: MAKGLGKGINALFNQVDLSEETVEEIKIADLRPNPYQPRKHFDDEALAELKESVLQHGILQPLIVRKSLKGYDIVAGERRFRAAKLAGLDTVPAIVRELSEALMREIALLENLQREDLSPLEEAQAYDSLLKHLDLTQEQLAKRLGKSRPHIANHLRLLTLPENIQQLIAEGTLSMGHGRTLLGLKNKNKLEPLVQKVIAEQLNVRQLEQLIQQLNQNVPRETKKKEPVKDAVLKERESYLQNYFGTTVNIKRQKKAGKIEIEFFSNEDLDRILELLSERES
- stoichiometry N (SEC-MALS): 2

B5: BsParB(K255A), full length (natural protein)
chain: MAKGLGKGINALFNQVDLSEETVEEIKIADLRPNPYQPRKHFDDEALAELKESVLQHGILQPLIVRKSLKGYDIVAGERRFRAAKLAGLDTVPAIVRELSEALMREIALLENLQREDLSPLEEAQAYDSLLKHLDLTQEQLAKRLGKSRPHIANHLRLLTLPENIQQLIAEGTLSMGHGRTLLGLKNKNKLEPLVQKVIAEQLNVRQLEQLIQQLNQNVPRETKKKEPVKDAVLKERESYLQNYFGTTVNIKRQAKKGKIEIEFFSNEDLDRILELLSERES
- stoichiometry N (SEC-MALS): 2

B6: BsParB(K252A-K255A-K259A) (natural protein)
chain: MAKGLGKGINALFNQVDLSEETVEEIKIADLRPNPYQPRKHFDDEALAELKESVLQHGILQPLIVRKSLKGYDIVAGERRFRAAKLAGLDTVPAIVRELSEALMREIALLENLQREDLSPLEEAQAYDSLLKHLDLTQEQLAKRLGKSRPHIANHLRLLTLPENIQQLIAEGTLSMGHGRTLLGLKNKNKLEPLVQKVIAEQLNVRQLEQLIQQLNQNVPRETKKKEPVKDAVLKERESYLQNYFGTTVNIARQAKKGAIEIEFFSNEDLDRILELLSERES
- binding result (SEC-MALS): binds

B7: BsParB(K252A), full length (natural protein)
chain: MAKGLGKGINALFNQVDLSEETVEEIKIADLRPNPYQPRKHFDDEALAELKESVLQHGILQPLIVRKSLKGYDIVAGERRFRAAKLAGLDTVPAIVRELSEALMREIALLENLQREDLSPLEEAQAYDSLLKHLDLTQEQLAKRLGKSRPHIANHLRLLTLPENIQQLIAEGTLSMGHGRTLLGLKNKNKLEPLVQKVIAEQLNVRQLEQLIQQLNQNVPRETKKKEPVKDAVLKERESYLQNYFGTTVNIARQKKKGKIEIEFFSNEDLDRILELLSERES
- stoichiometry N (SEC-MALS): 2

B8: BsParB(K252A-K259A) (natural protein)
chain: MAKGLGKGINALFNQVDLSEETVEEIKIADLRPNPYQPRKHFDDEALAELKESVLQHGILQPLIVRKSLKGYDIVAGERRFRAAKLAGLDTVPAIVRELSEALMREIALLENLQREDLSPLEEAQAYDSLLKHLDLTQEQLAKRLGKSRPHIANHLRLLTLPENIQQLIAEGTLSMGHGRTLLGLKNKNKLEPLVQKVIAEQLNVRQLEQLIQQLNQNVPRETKKKEPVKDAVLKERESYLQNYFGTTVNIARQKKKGAIEIEFFSNEDLDRILELLSERES
- binding result (SEC-MALS): binds

B9: BsParB(K256A), full length (natural protein)
chain: MAKGLGKGINALFNQVDLSEETVEEIKIADLRPNPYQPRKHFDDEALAELKESVLQHGILQPLIVRKSLKGYDIVAGERRFRAAKLAGLDTVPAIVRELSEALMREIALLENLQREDLSPLEEAQAYDSLLKHLDLTQEQLAKRLGKSRPHIANHLRLLTLPENIQQLIAEGTLSMGHGRTLLGLKNKNKLEPLVQKVIAEQLNVRQLEQLIQQLNQNVPRETKKKEPVKDAVLKERESYLQNYFGTTVNIKRQKAKGKIEIEFFSNEDLDRILELLSERES
- stoichiometry N (SEC-MALS): 2
